This passage reports expression_or_secretion and degradation_or_half_life results from PMC9989928.

Holding throughout (conditions): glycan lost; control: wild-type VMO1-myc-his6
Series [1] is described as follows: anti-myc western blot of conditioned media. On the technique in general: A western blot detects proteins with antibodies after separation by electrophoresis.
Series [2] in a line: cycloheximide chase, western blot of lysates.
Series [3] in a line: anti-myc western blot of total cell lysates.

B1: vitelline membrane outer layer protein 1 homolog (VMO1): W105F (protein)
parent chain: MERGAGAKLLPLLLLLRATGFTCAQTDGRNGYTAVIEVTSGGPWGDWAWPEMCPDGFFASGFSLKVEPPQGIPGDDTALNGIRLHCARGNVLGNTHVVESQSGSWGEWSEPLWCRGGAYLVAFSLRVEAPTTLGDNTAANNVRFRCSDGEELQGPGLSWGDFGDWSDHCPKGACGLQTKIQGPRGLGDDTALNDARLFCCRS
B1: the expression_or_secretion result is given as “no change” in series [1] and “increases” in series [3]. For the same protein, in series [2], the degradation_or_half_life result is “increases”.
